According to patent publication US20260092093A1 (TJ BIOPHARMA SHANGHAI, published 2026):

T1: hIL-18BP-hFc (human, UniProt O95998 31-194, limits assumed)
T1 sequence (looked up): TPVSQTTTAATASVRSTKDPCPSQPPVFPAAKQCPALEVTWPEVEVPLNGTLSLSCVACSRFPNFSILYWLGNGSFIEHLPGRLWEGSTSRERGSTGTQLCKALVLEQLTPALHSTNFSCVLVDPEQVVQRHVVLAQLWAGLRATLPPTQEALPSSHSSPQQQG

T2: hIL-18 receptor (hIL-18Rα and hIL-18Rβ) (human, UniProt Q13478 19-541; O95256 20-599)
T2 sequence (looked up) 1: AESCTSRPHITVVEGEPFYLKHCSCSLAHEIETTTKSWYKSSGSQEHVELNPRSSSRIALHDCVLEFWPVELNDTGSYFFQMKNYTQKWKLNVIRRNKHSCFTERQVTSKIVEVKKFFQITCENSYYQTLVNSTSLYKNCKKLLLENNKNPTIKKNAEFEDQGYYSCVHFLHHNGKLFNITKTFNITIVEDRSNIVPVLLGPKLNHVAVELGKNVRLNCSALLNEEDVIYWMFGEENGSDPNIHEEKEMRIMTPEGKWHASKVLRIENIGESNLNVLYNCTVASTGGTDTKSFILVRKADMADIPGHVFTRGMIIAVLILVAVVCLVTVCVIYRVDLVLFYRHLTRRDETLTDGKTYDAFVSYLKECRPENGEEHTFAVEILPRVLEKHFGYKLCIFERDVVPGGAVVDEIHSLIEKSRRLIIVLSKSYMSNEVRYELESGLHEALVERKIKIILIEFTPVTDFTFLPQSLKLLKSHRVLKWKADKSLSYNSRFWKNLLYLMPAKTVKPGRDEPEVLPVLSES
T2 sequence (looked up) 2: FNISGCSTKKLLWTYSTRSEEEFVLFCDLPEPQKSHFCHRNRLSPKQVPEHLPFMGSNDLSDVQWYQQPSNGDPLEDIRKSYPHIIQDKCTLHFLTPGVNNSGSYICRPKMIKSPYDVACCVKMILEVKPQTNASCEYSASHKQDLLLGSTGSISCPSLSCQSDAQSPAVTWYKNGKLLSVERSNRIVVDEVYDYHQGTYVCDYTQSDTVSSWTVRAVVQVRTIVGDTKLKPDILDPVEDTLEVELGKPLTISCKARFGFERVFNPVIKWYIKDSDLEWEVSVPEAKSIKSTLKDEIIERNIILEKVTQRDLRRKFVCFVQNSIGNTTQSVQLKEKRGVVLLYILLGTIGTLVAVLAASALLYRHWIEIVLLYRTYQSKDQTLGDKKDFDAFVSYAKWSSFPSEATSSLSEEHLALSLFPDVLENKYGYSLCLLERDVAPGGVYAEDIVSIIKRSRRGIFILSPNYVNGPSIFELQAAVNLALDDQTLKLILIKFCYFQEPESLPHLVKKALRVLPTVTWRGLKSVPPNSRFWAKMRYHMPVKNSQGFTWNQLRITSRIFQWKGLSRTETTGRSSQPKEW


Assays:
Test in all cases: cell-based or functional assay
hIL-18BP-hFc [1] = target: T1, hIL-18BP-hFc
[2] = target: T2, hIL-18 receptor (hIL-18Rα and hIL-18Rβ)
hIL-18BP-hFc [3] = target: T1, hIL-18BP-hFc; remark: listed apart in the source
[4] = target: T2, hIL-18 receptor (hIL-18Rα and hIL-18Rβ); remark: listed apart in the source

| Binder | EC50 (nM) in the Presence of 1 µg/mL hIL-18BP-hFc, hIL-18 reporter assay (hIL-18BP-hFc [1]) [nM] | EC50 Fold Change (+BP/-BP), hIL-18 reporter assay (hIL-18BP-hFc [1]) [fold] | EC50 (nM), hIL-18 reporter assay [2] [nM] | EC50 (nM) in the Presence of 1 µg/mL hIL-18BP-hFc, PBMC assay (hIFNγ release) (hIL-18BP-hFc [3]) [nM] | EC50 Fold Change (+BP/-BP), PBMC assay (hIFNγ release) (hIL-18BP-hFc [3]) [fold] | EC50 (nM), PBMC assay (hIFNγ release) [4] [nM] |
| --- | --- | --- | --- | --- | --- | --- |
| IL-18 variant polypeptide M29 (ligand) YFPKLMSKLSVIRNLNDQVLFIDQGNRPLFEDMTDSDCRDNAPRTIFIISMYKFSDRRGMAVTISVKCEKISTLSCENKIISFKEMNPPDPIKDTKSDIIFFQRSVPGHDNKMQFESSSYEGYFLACEKERDLFKLILKKEDELGDRSIMFTVQNED | 1.9 | 0.4 | 4.8 | 0.096 | 0.69 | 0.14 |
| IL-18 variant polypeptide M32 (ligand) YFPKLGSKLSVIRNLNDQVLFIDQGNRPLFEDMTDSDCRDNAPRTIFIISMYKSSSRRGMAVTISVKCEKISTLSCENKIISFKEMNPPDNIKDTKSDIIFFQRSVPGHDNKMQFESSSYEGYFLACEKERDLFKLILKKEDELGDRSIMFTVQNED | 4.1 | 0.69 | 5.9 | 0.1 | 0.77 | 0.13 |
| IL-18 variant polypeptide M33 (ligand) YFEKLHSKLSVIRNLNDQVLFIDQGNRPLFEDMTDSDCRDNAPRTIFIISMYKRSTHRGMAVTISVKCEKISTLSCENKIISFKEMNPPDNIKDTKSDIIFFQRSVPGHDNKMQFESSSYEGYFLACEKERDLFKLILKKEDELGDRSIMFTVQNED | 10.7 | 0.58 | 18.4 | 0.35 | 0.69 | 0.51 |
| IL-18 variant polypeptide M35 (ligand) YFPKLRSKLSVIRNLNDQVLFIDQGNRPLFEDMTDSDCRDNAPRTIFIISMYKGSGARGMAVTISVKCEKISTLSCENKIISFKEMNPPDGIKDTKSDIIFFQRSVPGHDNKMQFESSSYEGYFLACEKERDLFKLILKKEDELGDRSIMFTVQNED | 0.51 | 0.82 | 0.62 | 0.14 | 1.65 | 0.085 |
| IL-18 variant polypeptide M36 (ligand) YFPKLSSKLSVIRNLNDQVLFIDQGNRPLFEDMTDSDCRDNAPRTIFIISMYKASDQRGMAVTISVKCEKISTLSCENKIISFKEMNPPDGIKDTKSDIIFFQRSVPGHDNKMQFESSSYEGYFLACEKERDLFKLILKKEDELGDRSIMFTVQNED | 2.5 | 0.64 | 3.9 | 0.8 | 0.73 | 1.1 |
| IL-18 variant polypeptide MM5 (ligand) YFGKLGSKLSVIRNLNDQVLFIDQGNRPLFEDMTDSDCRDNAPRTIFIISMYKLSTERGMAVTISVKCEKISTLSCENKIISFKEMNPPDGIKDTKSDIIFFQSSVPGHDNKMQFESSSYEGYFLACEKERDLFKLILKKEDELGDRSIMFTVQNED | 0.08 | 2.86 | 0.028 | 0.045 | 1.29 | 0.035 |
| IL-18 variant polypeptide WM6 (ligand) YFDKLKSKLSVIRNLNDQVLFIDQGNRPLFEDMTDSDCRDNAPRTIFIISMYKDSQPRGMAVTISVKCEKISTLSCENKIISFKEMNPPDSIKDTKSDIIFFQRSVPGHDNKMQFESSSYEGYFLACEKERDLFKLILKKEDELGDRSIMFTVQNED | 0.74 | 12.3 | 0.06 | ~0.04 |  |  |
| IL-18 variant polypeptide WM8 (ligand) YFPKLRSKLSVIRNLNDQVLFIDQGNRPLFEDMTDSDCRDNAPRTIFIISMYKDSQPRGMAVTISVKCEKISTLSCENKIISFKEMNPPDSIKDTKSDIIFFQRSVPGHDNKMQFESSSYEGYFLACEKERDLFKLILKKEDELGDRSIMFTVQNED | 5.2 | 0.74 | 7 | 1.02 | 1.5 | 0.68 |
| IL-18 variant polypeptide WM10 (ligand) YFPKLKSKLSVIRNLNDQVLFIDQGNRPLFEDMTDSDCRDNAPRTIFIISMYKDSQPRGMAVTISVKCEKISTLSCENKIISFKEMNPPDSIKDTKSDIIFFQRSVPGHDNKMQFESSSYEGYFLACEKERDLFKLILKKEDELGDRSIMFTVQNED | 15.6 | 1.06 | 14.7 | 0.44 | 0.83 | 0.53 |
| IL-18 variant polypeptide M11 (ligand) YFPKLRSKLSVIRNLNDQVLFIDQGNRPLFEDMTDSDCRDNAPRTIFIISMYKSSRNRGMAVTISVKCEKISTLSCENKIISFKEMNPPDGIKDTKSDIIFFQTSVPGHDNKMQFESSSYEGYFLACEKERDLFKLILKKEDELGDRSIMFTVQNED | 0.21 | 1.62 | 0.13 | 0.068 | 1.55 | 0.044 |
| IL-18 variant polypeptide M12 (ligand) YFPKLKSKLSVIRNLNDQVLFIDQGNRPLFEDMTDSDCRDNAPRTIFIISMYKGSGARGMAVTISVKCEKISTLSCENKIISFKEMNPPDTIKDTKSDIIFFQRSVPGHDNKMQFESSSYEGYFLACEKERDLFKLILKKEDELGDRSIMFTVQNED | 0.03 | 0.75 | 0.04 | 0.045 | 1.05 | 0.043 |
| IL-18 variant polypeptide M25 (ligand) YFPKLRSKLSVIRNLNDQVLFIDQGNRPLFEDMTDSDCRDNAPRTIFIISMYKLSTTRGMAVTISVKCEKISTLSCENKIISFKEMNPPDRIKDTKSDIIFFQRSVPGHDNKMQFESSSYEGYFLACEKERDLFKLILKKEDELGDRSIMFTVQNED | 1.15 | 1.98 | 0.58 |  |  |  |
| IL-18 variant polypeptide M26 (ligand) YFPKLRSKLSVIRNLNDQVLFIDQGNRPLFEDMTDSDCRDNAPRTIFIISMYKHSDKRGMAVTISVKCEKISTLSCENKIISFKEMNPPDVIKDTKSDIIFFQYSVPGHDNKMQFESSSYEGYFLACEKERDLFKLILKKEDELGDRSIMFTVQNED | 0.094 | 1.38 | 0.068 |  |  |  |
